± gives the uncertainty stated by the source.
B1: Calcium-binding protein 2, residues 155 to 219; numbered along this chain, Q9NPB3 (parent)
chain: RELRDAFREFDTNGDGRISVGELRAALKALLGERLSQREVDEILQDVDLNGDGLVDFEEFVRMMS

Variants of: B1
Experiment: abundance fitness (aPCA) (normalised: wild type 0, dead -1); higher = more abundant; growth selection in yeast, the domain comes from the species named
Settings: Homo sapiens

In order of rising abundance fitness:
1. F7N  -1.44 ± 0.4
2. F7H  -1.18 ± 0.35
3. V55D  -1.16 ± 0.09
4. F60K  -1.08 ± 0.28
5. V55E  -1.02 ± 0.16
6. G16F  -0.992 ± 0.31
7. A6P  -0.952 ± 0.1
8. F60H  -0.875 ± 0.14
9. A26E  -0.86 ± 0.12
10. N50M  -0.833 ± 0.2
11. F60R  -0.798 ± 0.12
12. V55N  -0.714 ± 0.069
13. F60D  -0.71 ± 0.16
14. V20K  -0.639 ± 0.23
15. M63P  -0.614 ± 0.1
16. D5W  -0.491 ± 0.071
17. M63K  -0.459 ± 0.18
18. D5Y  -0.451 ± 0.087
19. V61P  -0.445 ± 0.23
20. E58Y  -0.43 ± 0.16
21. G16R  -0.428 ± 0.06
22. G21W  -0.423 ± 0.2
23. F7C  -0.422 ± 0.1
24. M63R  -0.404 ± 0.065
25. V55S  -0.394 ± 0.038
26. V55Q  -0.391 ± 0.084
27. A26D  -0.379 ± 0.27
28. D41Q  -0.365 ± 0.17
29. L54W  -0.346 ± 0.043
30. V55M  -0.338 ± 0.057
31. F7M  -0.33 ± 0.072
32. G21H  -0.328 ± 0.3
33. D5G  -0.318 ± 0.05
34. L54H  -0.292 ± 0.31
35. K28F  -0.277 ± 0.27
36. G51F  -0.269 ± 0.18
37. Q45F  -0.263 ± 0.097
38. L54V  -0.241 ± 0.047
39. L23S  -0.238 ± 0.15
40. N50L  -0.232 ± 0.062
41. G53L  -0.23 ± 0.067
42. G16Q  -0.223 ± 0.065
43. D5I  -0.219 ± 0.08
44. R17T  -0.217 ± 0.074
45. K28Y  -0.216 ± 0.35
46. A29Y  -0.214 ± 0.21
47. L23N  -0.213 ± 0.096
48. L54F  -0.212 ± 0.11
49. L54K  -0.207 ± 0.19
50. A29I  -0.204 ± 0.21
51. G21R  -0.196 ± 0.053
52. E33L  -0.195 ± 0.059
53. L23G  -0.193 ± 0.07
54. L3W  -0.187 ± 0.1
55. V55I  -0.185 ± 0.054
56. E42A  -0.183 ± 0.068
57. E42W  -0.183 ± 0.087
58. D5M  -0.171 ± 0.061
59. E42D  -0.166 ± 0.12
60. Q45Y  -0.16 ± 0.12
61. M63G  -0.16 ± 0.082
62. D5H  -0.159 ± 0.062
63. M63S  -0.158 ± 0.074
64. R8I  -0.156 ± 0.14
65. R8Y  -0.153 ± 0.23
66. V20T  -0.146 ± 0.12
67. F7W  -0.142 ± 0.053
68. R8C  -0.141 ± 0.23
69. R17N  -0.14 ± 0.47
70. L23C  -0.139 ± 0.28
71. V61F  -0.134 ± 0.16
72. G21I  -0.134 ± 0.18
73. Q45P  -0.133 ± 0.073
74. K28N  -0.133 ± 0.17
75. L23V  -0.133 ± 0.084
76. E33Y  -0.119 ± 0.19
77. R38M  -0.112 ± 0.1
78. E33F  -0.109 ± 0.16
79. E42V  -0.108 ± 0.088
80. M63Y  -0.108 ± 0.19
81. R38W  -0.107 ± 0.061
82. E58V  -0.105 ± 0.085
83. R38F  -0.104 ± 0.2
84. D48W  -0.103 ± 0.065
85. E58Q  -0.102 ± 0.089
86. R17M  -0.099 ± 0.096
87. A29E  -0.096 ± 0.29
88. L27Q  -0.095 ± 0.16
89. L3I  -0.095 ± 0.2
90. A26V  -0.095 ± 0.1
91. N50S  -0.092 ± 0.067
92. L27H  -0.091 ± 0.15
93. G53D  -0.088 ± 0.062
94. G51R  -0.085 ± 0.04
95. R38C  -0.079 ± 0.08
96. Q45E  -0.076 ± 0.092
97. A6E  -0.076 ± 0.073
98. E42C  -0.074 ± 0.2
99. D5F  -0.066 ± 0.078
100. G53V  -0.063 ± 0.062
101. R38P  -0.056 ± 0.058
102. D5E  -0.054 ± 0.056
103. V61A  -0.054 ± 0.077
104. R38T  -0.052 ± 0.076
105. K28M  -0.051 ± 0.17
106. A29L  -0.051 ± 0.063
107. G53S  -0.05 ± 0.068
108. A29M  -0.049 ± 0.12
109. E33M  -0.049 ± 0.12
110. V61T  -0.044 ± 0.095
111. V20H  -0.043 ± 0.13
112. V61R  -0.04 ± 0.057
113. A25V  -0.035 ± 0.063
114. A29W  -0.034 ± 0.067
115. V55L  -0.028 ± 0.045
116. A29T  -0.023 ± 0.07
117. A25P  -0.022 ± 0.11
118. R17F  -0.021 ± 0.16
119. R38V  -0.021 ± 0.071
120. V61C  -0.014 ± 0.39
121. F60W  -0.012 ± 0.072
122. V61L  -0.012 ± 0.065
123. A6S  -0.011 ± 0.087
124. Q45I  -0.01 ± 0.13
125. A6L  -0.008 ± 0.048
126. D5Q  -0.007 ± 0.075
127. E33P  -0.007 ± 0.08
128. L27K  -0.006 ± 0.26
129. V61G  -0.005 ± 0.067
130. M63W  -0.003 ± 0.078
131. G21Q  -0.001 ± 0.11
132. R38S  0.001 ± 0.08
133. K28T  0.002 ± 0.085
134. G51V  0.003 ± 0.06
135. V61H  0.011 ± 0.13
136. G51K  0.014 ± 0.17
137. R38G  0.014 ± 0.042
138. Q45L  0.015 ± 0.064
139. L23M  0.025 ± 0.094
140. A6V  0.026 ± 0.06
141. R8T  0.031 ± 0.11
142. D5T  0.038 ± 0.058
143. D48Y  0.042 ± 0.099
144. A6N  0.042 ± 0.21
145. R17G  0.045 ± 0.055
146. R17L  0.045 ± 0.066
147. R8D  0.045 ± 0.12
148. A25D  0.045 ± 0.082
149. G51D  0.057 ± 0.16
150. G51L  0.06 ± 0.061
151. A29D  0.063 ± 0.18
152. V20M  0.066 ± 0.094
153. A26L  0.073 ± 0.058
154. L27F  0.077 ± 0.083
155. A6C  0.085 ± 0.1
156. A25E  0.096 ± 0.13
157. R38D  0.1 ± 0.075
158. G21F  0.102 ± 0.29
159. D48I  0.105 ± 0.41
160. D48H  0.108 ± 0.11
161. L27A  0.122 ± 0.073
162. D48Q  0.127 ± 0.074
163. R17C  0.141 ± 0.088
164. L27S  0.161 ± 0.06
165. L27G  0.165 ± 0.052
166. A25C  0.177 ± 0.14
167. A26C  0.215 ± 0.11

Source: the Human Domainome abundance scans (Beltran et al. 2025)
